Laboratory results taken from paper PMC9504171, “Revealing a New Family of D-2-Hydroxyglutarate Dehydrogenases in Escherichia coli and Pantoea ananatis Encoded by ydiJ” (Microorganisms, 2022).

Legend:
purified protein [1] = substrate: O=C(O)CC[C@@H](O)C(=O)O; test: purified protein; assay type: biochemical, Escherichia coli; settings: 200 μM phenazine ethosulfate, 100 μM DCIP, 50 mM Tris-HCl pH 8.0, 25 °C
purified protein [2] = substrate: O=C(O)CC[C@@H](O)C(=O)O; test: purified protein; assay type: biochemical, Pantoea ananatis; settings: 200 μM phenazine ethosulfate, 100 μM DCIP, 50 mM Tris-HCl pH 7.5, 25 °C

Protein	Km (purified protein [1])	kcat (purified protein [1])	kcat/Km (purified protein [1])	Km (purified protein [2])	kcat (purified protein [2])	kcat/Km (purified protein [2])
D2HGDHEc (YdiJ, E. coli) (Escherichia coli K-12) (protein, 1018 residues; calculated 113,248 Da; homotetramer ~440 kDa) MIPQISQAPGVVQLVLNFLQELEQQGFTGDTATSYADRLTMSTDNSIYQLLPDAVVFPRSTADVALIARLAAQERYSSLIFTPRGGGTGTNGQALNQGIIVDMSRHMNRIIEINPEEGWVRVEAGVIKDQLNQYLKPFGYFFAPELSTSNRATLGGMINTDASGQGSLVYGKTSDHVLGVRAVLLGGDILDTQPLPVELAETLGKSNTTIGRIYNTVYQRCRQQRQLIIDNFPKLNRFLTGYDLRHVFNDEMTEFDLTRILTGSEGTLAFITEARLDITRLPKVRRLVNVKYDSFDSALRNAPFMVEARALSVETVDSKVLNLAREDIVWHSVSELITDVPDQEMLGLNIVEFAGDDEALIDERVNALCARLDELIASHQAGVIGWQVCRELAGVERIYAMRKKAVGLLGNAKGAAKPIPFAEDTCVPPEHLADYIAEFRALLDSHGLSYGMFGHVDAGVLHVRPALDMCDPQQEILMKQISDDVVALTAKYGGLLWGEHGKGFRAEYSPAFFGEELFAELRKVKAAFDPHNRLNPGKICPPEGLDAPMMKVDAVKRGTFDRQIPIAVRQQWRGAMECNGNGLCFNFDARSPMCPSMKITQNRIHSPKGRATLVREWLRLLADRGVDPLKLEQELPESGVSLRTLIARTRNSWHANKGEYDFSHEVKEAMSGCLACKACSTQCPIKIDVPEFRSRFLQLYHTRYLRPLRDHLVATVESYAPLMARAPKTFNFFINQPLVRKLSEKHIGMVDLPLLSVPSLQQQMVGHRSANMTLEQLESLNAEQKARTVLVVQDPFTSYYDAQVVADFVRLVEKLGFQPVLLPFSPNGKAQHIKGFLNRFAKTAKKTADFLNRMAKLGMPMVGVDPALVLCYRDEYKLALGEERGEFNVLLANEWLASALESQPVATVSGESWYFFGHCTEVTALPGAPAQWAAIFARFGAKLENVSVGCCGMAGTYGHEAKNHENSLGIYELSWHQAMQRLPRNRCLATGYSCRSQVKRVEGTGVRHPVQALLEIIK	83 ± 5 µM	13.9 s⁻¹	170000 M⁻¹ s⁻¹			
D2HGDHPa (YdiJ, P. ananatis) (Pantoea ananatis AJ13355) (protein, 1018 residues; calculated 113,453 Da; homotetramer ~440 kDa) MIPQISQAPGLIQRVLTFLETLKAQGFTGDTATSYADRLSLSTDNSIYQLLPDAVLFPRSTADVALIARLAGEAAFSSLVFTPRGGGTGTNGQSLNQGIIVDMSRHMNRILEINTEQRWVRVEAGVVKDQLNAYLKPFGFFFSPELSTSNRATLGGMINTDASGQGSLVYGKTSDHVLGLRAVLLGGDILDTRPVPTALAENLAQTPTPEGRIYQQVLTRCREHRELILEKFPKLNRFLTGYDLRHVFSDDMQTFDLTRLLCGAEGTLAFISEARLDITPLPKVRRVVNIKYDAFDSALRNAPLMVEAQALSVETVDSKVLNLAREDIVWHSVRELITAIPDKEMLGLNIVEFAGDDAGQIDRQITQLCARLDTLMTQQQGGVIGYQLCDDLDGIERIYNMRKKAVGLLGNAKGRAKPIPFVEDTAVPPEHLADYIVEFRALLDSHGLSYGMFGHVDAGVLHVRPALDMCDPHQEMMMKQISDEVVALTARYGGLLWGEHGKGFRAQYSPAFFGETLFNELRRIKAAFDPHNRLNPGKICTPFDSEAAMMQVDATKRGSYDRQIPLQVRETWRGALECNGNGLCFNFDARSPMCPSMKITRNRIHSPKGRATLTREWLRLLAEQGADPVMLEKKLPESSLSLRALISRMRNTWYANKGEYDFSHEVKEAMSGCLACKACSTQCPIKIDVPAFRSRFLQLYHTRYLRPLSDHLVAGVESYAPLMAKAPGVFNFFLKQPWATSFSKTHIGMVDLPLLSSPTLKQQLSGHPAMNMTLEQLEALSETQRAQKVLVVQDPFTSFYEAKLVHDFIRLIEKLGYQPVLLPFSPNGKAQHVKGFLQRFARTASKTADFLNRVAKLGMPMVGIDPATVLCYRDEYHQMLGEARGDFNVLLVHEWLHQALQEREVQVTSGEAWYLFAHCTEVTALPGTPGQWQAIFSRFGAKLENINVGCCGMAGTYGHESQNLENSLGIYALSWHPQLQKLPRQRCLATGFSCRSQVKRVEGNGMRHPLQALLELI				208 ± 10 µM	9.7 s⁻¹	50000 M⁻¹ s⁻¹
